In US20250177548A1, “FUSOGENIC PEPTIDE COMPOSITIONS AND METHODS OF CARGO DELIVERY” (CLEMSON UNIVERSITY, priority 2022, published 2025):
“Also recorded” adds a separate entry of the source. Non-standard residues stand in square brackets, D forms with d. No end group written: not given here. pG = not defined here

Columns and labels:
[1] = gel assay of siRNA protection from degradation in 50% serum; type: in vitro ADME; settings: 50% FBS, 1 hour, several N:P ratios
Procedure: (§1) Gel Shift Assays. DIVA3, DIV3H, and DIV3W (all three denoted as DIV3 (X)) peptides suspended in RNase-free water (10 μM), were thawed, and kept on ice prior to complexation with 10 μM of negative control siGENOME non-targeting siRNA #5 (siNT, GE Healthcare Dharmacon, Lafayette, CO) in RNase-free water and incubated for 20 minutes at room temperature to allow the formation of DIV3 (X)-siNT complexes. Various molar ratios of peptides were complexed with siNT at increasing N:P molar ratios to determine the minimum molar ratio necessary to completely complex free siRNAs using an electrophoretic mobility shift assay. To determine the ability of each peptide variant to protect siRNAs from degradation, DIV3 (X)-siNT complexes or siNT alone was left untreated or incubated with either 50% v/v FBS or 5 μg/mL RNase A at 37° C. for one hour. Next, complexes were dissociated using 6% sodium dodecyl sulfate (SDS). Samples were added to a 2% agarose gel and run at 100 V. Gels were stained with ethidium bromide, destained with Milli-Q water, and imaged using a ChemiDoc XRS imager (Bio-Rad, Hercules, CA).
(§2) Characterization of Nanoparticle Size and Stability. To determine the minimum molar ratio necessary to completely complex free siRNAs, increasing N:P molar ratios of LHRH, DIV3W, and LHRH-DIV3W peptide were complexed with siRNAs and electrophoresed using a electrophoretic mobility shift assay. Molar ratios, shown as N:P, are representations of the molar amine peptide content in relation to 1 mole of phosphate group siRNA content. To determine the ability of the peptides to protect siRNAs from serum- or RNase-mediated degradation, LHRH and LHRH-DIV3W complexes were formed in RNase-free water with siNT at increasing N:P molar ratios and incubated at 37° C., 5% CO2, 50% v/v FBS, 5 μg/mL RNase A, or 50% v/v RNase free water for 1 hour. Peptide/siRNA complexes were dissociated using 6% sodium dodecyl sulfate (SDS) prior to electrophoresis in a 2% agarose gel run at 100 V. Gels were stained with ethidium bromide, washed with Milli-Q water, and imaged with a BioRad ChemiDoc XRS imager (BioRad, Hercules, CA).
(§3) Peptides VA-LD and GF-LD, comprising the cleavable linker VA or GLFG, respectively, between the LHRH target sequence and the DIV3W peptide, and non targeting siRNA were electrostatically complexed at increasing N:P ratios then subjected to agarose gel electrophoresis to determine optimal siRNA binding for each peptide. […] Peptide-siRNA nanocomplexes at increasing N:P ratios for peptides for VA-LD (FIG. 30A) and GF-LD (FIG. 30C) were incubated in either Rnase A enzyme or in 50% fetal bovine serum (FBS) for 1 h, dissociated using SDS then subjected to gel electrophoresis to visualize siRNA bands. Gels showing increasing N:P ratios of peptide:siRNA for VA-LD (FIG. 30B) and GF-LD (FIG. 30D) from 20:1 to 80:1 N:P; white bands are indicative of intact siRNA

[2] = system: RNase A; assay: gel assay of siRNA protection from RNase A degradation; type: in vitro ADME; settings: 1 hour, several N:P ratios
Procedure: as §1, §2, §3

[3] = target: T1, LHRH receptor (Homo sapiens, UniProt P30968); assay: competitive binding assay with LHRH receptor antibody; type: cell-based; settings: OVCAR3 and CAOV3 cells, siNT-Cy5.5 complexes, 4 hours
T1 construct: endogenous in cells; host or cells: OVCAR3, CAOV3
T1 sequence (P30968 1-328): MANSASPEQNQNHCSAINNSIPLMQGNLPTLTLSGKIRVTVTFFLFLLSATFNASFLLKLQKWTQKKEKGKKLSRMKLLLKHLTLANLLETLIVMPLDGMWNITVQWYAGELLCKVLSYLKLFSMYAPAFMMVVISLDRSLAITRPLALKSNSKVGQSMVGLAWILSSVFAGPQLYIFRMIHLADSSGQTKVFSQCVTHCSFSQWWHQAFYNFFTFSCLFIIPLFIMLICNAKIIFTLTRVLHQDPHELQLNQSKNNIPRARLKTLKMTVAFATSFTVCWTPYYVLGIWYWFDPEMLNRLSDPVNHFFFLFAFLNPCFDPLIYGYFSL
Procedure: To analyze the specificity of the LHRH-DIV3W tandem peptide targeting LHRH receptor, a competitive binding assay was performed by incubating OVCAR3 and CAOV3 cells with GnRHR primary antibody (1:100) in 1× PBS overnight at 4° C. after being blocked with a 1% bovine serum albumin solution for 30 minutes at room temperature. LHRH-DIV3W-siNT-Cy5.5 complexes were delivered after the overnight primary antibody incubation and incubated again for 4 hours. Secondary SuperSignal Alexa Fluor 488 antibodies were delivered dropwise to cells following Invitrogen SuperSignal protocols and left to incubate at room temperature for 30 minutes and subsequently stained with SuperSignal NucBlue Hoescht 33342 for an additional 30 minutes at room temperature. Cells were imaged at 20× and 40× using an Evos FL microscope (Thermo Fisher).

[4] = system: CK2α protein; assay: Western blot of CK2α in OVCAR3 cells; type: cell-based; settings: OVCAR3, 48 hours, 50:1 N:P ratio
Procedure: Western Blot. […] Cells were washed and treated with DIV3 (X)-siRNA complexes as previously described. Following the 48-hour treatment, cells were washed with 1× PBS and lysed with cold radioimmunoprecipitation assay (RIPA) buffer supplemented with protease inhibitor cocktail (Thermo Fisher). Protein concentrations were determined via bicinchoninic assay according to the manufacturer's protocol and absorbance was read at 562 nm. Equivalent protein concentrations for each treatment condition were separated by SDS-PAGE on a BioRad Stain-Free 10% gel according to BioRad protocols and transferred to a Stain-Free PVDF membrane using a wet transfer system. The PVDF membrane was cut at appropriate molecular weight intervals consistent with protein weights, then analyzed and blocked for 1 hour with 5% non-fat dried milk solution in 1× Tris-HCl-buffered-saline-0.1% Tween 20 (TBST) at room temperature. Blots were probed at 4° C. overnight with rabbit monoclonal anti-CK2α antibody (1:1000, Invitrogen) or mouse monoclonal anti-β-actin (1:10,000, Sigma-Aldrich, St. Louis, MO). […] Five additional washes with 1× TBST were performed and protein bands were detected with SuperSignal West Pico Plus Chemiluminescent Substrate (Thermo Fisher) and imaged using a BioRad ChemiDoc Imaging System.

Which “intact siRNA after incubation in 50% serum” value [1] does the source give for “pGHWSY-(d) LLRPGGGGGWEADIVADIVWDIVADIVAGGG-(d) RRRRRRRRR ([pG]HWSY[dL]LRPGGGGGWEADIVADIVWDIVADIVAGGG[dR][dR][dR][dR][dR][dR][dR][dR][dR]; reading uncertain) [LHRH-DIV3W]” here?
Its value is “fully protect siRNA cargo from degradation”.

What about the “intact siRNA after incubation with RNase A” value [2] of the same substance?
The value was “Higher N:P ratios were required for full protection”.

What about the “siRNA internalization after preincubation with LHRH receptor antibody” value [3] of the same substance?
Its value is “siRNA internalization was drastically decreased; also recorded: minimal siRNA internalization”.

And the CK2α protein expression [4]?
The CK2α protein expression was “slight reduction in protein band intensity”.
